According to patent US20180171024A1:

Tests used:
[1] = molecular target: HLA-A2 on other WT1 negative HLA-A2+ cells (other than 501, A498 and SKMEL; members not named); experiment: flow cytometry on U266 cells (WT1 mRNA -)
[2] = molecular target: HLA-A2 on cells (tumor cell lines, normal primary cells, PBMCs) (human); experiment: flow cytometry, HEP-G2 cells, 10 µg/ml
[3] = molecular target: HLA-A2/PAP 112-120 complex on T2 cells (human); experiment: flow cytometry, T2 cells loaded with PAP112 [..], 10 µg/ml
[4] = molecular target: HLA-A2/TyrD-S20 on T2 cells (human); experiment: flow cytometry, T2 cells loaded with TyrD-S20 [..], 10 µg/ml
[5] = molecular target: HLA-A2/WT1 126-134 complex on T2 cells (human); experiment: flow cytometry, T2 cells loaded with WT1 peptide 1x10e-4M
[6] = molecular target: HLA-A2 on cells (tumor cell lines, normal primary cells, PBMCs) (human); experiment: flow cytometry, MEWO melanoma cells
[7] = molecular target: HLA-A2 on cells (tumor cell lines, normal primary cells, PBMCs) (human); experiment: flow cytometry, astrocytes #1800, 10 µg/ml
[8] = molecular target: HLA-A2 on cells (tumor cell lines, normal primary cells, PBMCs) (human); experiment: flow cytometry, renal epithelial cells 4120, 10 µg/ml
[9] = molecular target: HLA-A2 on cells (tumor cell lines, normal primary cells, PBMCs) (human); experiment: flow cytometry, 501A melanoma cells, 10 µg/ml
[10] = molecular target: HLA-A2 on cells (tumor cell lines, normal primary cells, PBMCs) (human); experiment: flow cytometry, 501A cells
[11] = molecular target: HLA-A2 on cells (tumor cell lines, normal primary cells, PBMCs) (human); experiment: flow cytometry, SK-Mel5 melanoma cells
[12] = molecular target: P68 … (Homo sapiens); experiment: flow cytometry, T2 cells loaded with 10^-4 M peptide
[13] = molecular target: HLA-A2/Tyrosinase369-377 complex on cells (human); experiment: as above
[14] = molecular target: HLA-A2/TyrD-S13 on T2 cells (human); experiment: flow cytometry, T2 cells loaded with TyrD S13 [..], 10 µg/ml
[15] = molecular target: HLA-A2/KIAA0355 on T2 cells (human); experiment: flow cytometry, T2 cells loaded with KIAA0335 [..], 10 µg/ml
[16] = molecular target: HLA-A2/TyrN on T2 cells (human); experiment: flow cytometry, T2 cells loaded with TyrN [..], 10 µg/ml
[17] = molecular target: HLA-A2 on cells (tumor cell lines, normal primary cells, PBMCs) (human); experiment: flow cytometry, astrocytes 1840, 10 µg/ml
[18] = molecular target: HLA-A2/TyrD-S10 on T2 cells (human); experiment: flow cytometry, T2 cells loaded with TyrD S10 [..], 10 µg/ml
[19] = molecular target: HLA-A2/GP9 on T2 cells (human); experiment: flow cytometry, T2 cells loaded with GP9 peptide
[20] = molecular target: HLA-A2/WT1-S11 on T2 cells (human); experiment: flow cytometry, peptide-loaded T2 cells (10^-4-10^-5 M), PE anti-mouse
[21] = molecular target: HLA-A2/WT1-S10 on T2 cells (human); experiment: as above
[22] = molecular target: HLA-A2 on cells (tumor cell lines, normal primary cells, PBMCs) (human); experiment: flow cytometry, H1703 cells, 10 µg/ml
[23] = molecular target: HLA-A2/TyrD-S3 on T2 cells (human); experiment: flow cytometry, T2 cells loaded with TyrD S3 [..], 10 µg/ml
[24] = molecular target: HLA-A2 on HLA-A2+ cells that do not express WT1 (tumor cell lines, normal primary cells); experiment: flow cytometry on SKMEL-5 melanoma cells (WT1 mRNA -)
[25] = molecular target: HLA-A2 on cells (tumor cell lines, normal primary cells, PBMCs) (human); experiment: flow cytometry, Malme-3M melanoma cells, 10 µg/ml
[26] = molecular target: HLA-A2/WT1 126-134 complex on T2 cells (human); experiment: flow cytometry, T2 cells loaded with WT1 peptide 1x10e-5M
[27] = molecular target: HLA-A2 on cells (tumor cell lines, normal primary cells, PBMCs) (human); experiment: flow cytometry, KYSE-140 cells, 10 µg/ml
[28] = molecular target: HLA-A2 on HLA-A2+ cells that do not express WT1 (tumor cell lines, normal primary cells); experiment: flow cytometry on A498 cells (WT1 mRNA -)
[29] = molecular target: HLA-A2 on cells (tumor cell lines, normal primary cells, PBMCs) (human); experiment: flow cytometry, DG-75 cells, 10 µg/ml
[30] = molecular target: HLA-A2/PAP 112-120 complex on T2 cells (human); experiment: flow cytometry, T2 cells loaded with 10^-4 M peptide
[31] = molecular target: HLA-A2/MAGE-A4 230-239 complex on cells (human); experiment: as above
[32] = molecular target: HLA-A2/MAGE-A9 223-231 complex on T2 cells (human); experiment: as above
[33] = molecular target: HLA-A2/TyrD-S8 on T2 cells (human); experiment: flow cytometry, T2 cells loaded with TyrD S8 [..], 10 µg/ml
[34] = molecular target: HLA-A2 on cells (tumor cell lines, normal primary cells, PBMCs) (human); experiment: flow cytometry, HepG2 cells
[35] = molecular target: HLA-A2 on cells (tumor cell lines, normal primary cells, PBMCs) (human); experiment: flow cytometry, fibroblasts Fib, 10 µg/ml
[36] = molecular target: HLA-A2/TyrD-S19 on T2 cells (human); experiment: flow cytometry, T2 cells loaded with TyrD-S19 [..], 10 µg/ml
[37] = molecular target: HLA-A2 on cells (tumor cell lines, normal primary cells, PBMCs) (human); experiment: flow cytometry, hepatocytes #5200-1, 10 µg/ml
[38] = molecular target: HLA-A2 on cells (tumor cell lines, normal primary cells, PBMCs) (human); experiment: flow cytometry, Caco2 cells
[39] = molecular target: HLA-A2 on HLA-A2+ cells that do not express WT1 (tumor cell lines, normal primary cells); experiment: flow cytometry on 501A melanoma cells (WT1 mRNA -)

Substance: BB7.2 (antibody)
- MFI [1]: 80.1
- MFI [2]: 315
- MFI relative to background [3]: 1170
- MFI relative to background [4]: 445
- MFI [5]: 722
- MFI [6]: 76
- MFI [7]: 751
- MFI [8]: 889
- MFI [9]: 243
- GeoMean [10]: 1290
- MFI [11]: 76
- MFI [12]: 542
- MFI [13]: 471
- MFI relative to background [14]: 749
- MFI relative to background [15]: 714
- MFI relative to background [16]: 483
- MFI [17]: 569
- MFI relative to background [18]: 620
- MFI [19]: 2470
- MFI [20]: 1670
- MFI [21]: 1350
- MFI [22]: 351
- MFI relative to background [23]: 430
- MFI [24]: 170
- MFI [25]: 540
- MFI [26]: 369
- MFI [27]: 36.1
- MFI [28]: 350
- MFI [29]: 700
- MFI [30]: 540
- MFI [31]: 492
- MFI [32]: 486
- MFI relative to background [33]: 539
- GeoMean [34]: 154
- MFI [35]: 481
- MFI relative to background [36]: 555
- MFI [37]: 591
- GeoMean [38]: 123
- MFI [39]: 229
